This note sets out measurements from US20240026407A1, “MODIFICATION OF SAPONINS” (GLAXOSMITHKLINE BIOLOGICALS SA, priority 2020, published 2024).

Format in all cases: biochemical, Quillaja saponaria
A short description of assay [1]: Experiment 6-1: screening of rhamnosidases for derhamnosylation of saponins in treated bark extract (2%), QS-17 2296 to QS-18 2150 (PAR %). The note with it: TBE 2%, pH 7.5, 30 degC, 18 h; TIC peak area ratio percent of rhamnosylated starting saponin to derhamnosylated product, LCMS/MS; negative controls 4.876, 5.225.
A short description of assay [2]: Experiment 6-1: screening of rhamnosidases for derhamnosylation of saponins in treated bark extract (2%), desglucosyl-QS-17 2134 to QS-21 1988 (PAR %). The settings on record: TBE 2%, pH 7.5, 30 degC, 18 h; TIC peak area ratio percent, LCMS/MS; negative controls 2.719, 2.158.
Assay [3] is described as follows: Experiment 6-1: screening of rhamnosidases for derhamnosylation of saponins in treated bark extract (2%), QS-17 2310 to QS-18 2164 (PAR %). The settings on record: TBE 2%, pH 7.5, 30 degC, 18 h; TIC peak area ratio percent, LCMS/MS; negative controls 3.061, 2.429.
Assay [4] in a line: Experiment 6-1: specificity of rhamnosidases towards other rhamnose residues (C3 saccharide rhamnose, C28 saccharide rhamnose). The note with it: TBE 2%, pH 7.5, 30 degC, 18 h; LCMS/MS; negative controls 0.18, 0.17.

B1: 1074 (protein, listed as Actinoplanes sp.)
chain: MKGSFAVLAAALLLMPVSAPTAAAEPAVTLDGAHWIWYPEGDPATSAPAATRYLRRAFTVAASDIATAQLVVTGDDTIDVWVNGVRLAGSPRAADSWKRAVRVDLAGSLHPGSNTVALAARNTGGPAGVLGRLHAGSVDLVTDGSWRAATGVPENWADPAFSDVAWTTAKDLGAYGGGPWGAGVALPDPAAASPVSVTDLTVNRQADPVGVDTPRFGWRLAAGTGGQMQGRYQLTVGSTAGAADVWDSGIVASTASRDIGYSGPALGANRTYFWRVRVWDAQGRPSAWSAGARFDTGIALTAAFVGAPPAGDLSGADWIWYPEGDPATSAPAATRYFRRTVTLATSTTLVVAGDDTADVWVDGTQISASPRVTDSWKTAATVTVPAGTRTIAIAASNTTVGPAGVIAKLGGIVTDGSWRSATAAPGGWQQPGFDDSGWLAAKVLAAYGSGPWGGQVLVPAAAPYLRKGFAVTRPVARARLFATALGLHDTYLNGARVGTERLAPGWTDYTKRVQYRGYDVTAALRLGDNALAAQIGHGWYSGNIGFAGSRRYGTQPWYAAQLIIEYTDGTSATVQTDGSWRTAPGNILGDDLYAGETQDARLIRSGWNTAGFDDSDWVPVTVQNGARPTLVPQVDPGVTVQQELRPVAVTQPKPGVFIADLGQNFTGWDRLRVSGPAGTTVTLRHGEILNADGTLYTANLRAAQATDRFTLAGTGTETFEPRFTVHGYRYVEITGFPGTPDADSLTGLAAWTGGAATGMFTSSDSTLNQVQRAILWGARSNLLSIPTDCPQRDERLGWTGDIAAFVATSTFNFDTYGLLAKFATDLTDAQHSDGAFTDVAPDVLGGAGKAGWGDAGVIVPYTVWQRFGDLAPADRNFAAMARWVDYLRSTAGADLIRNQDTYGDWLNVDDGTGNDLTSTAFFGWSARLVSRMAAATGRTAQAATYGTLADQIAAAFTGRFVHADNTVGTGSETGYVLALAFGLVPGDRVQAVADRLAAKVASRNGHLSVGFMGVENLLPVLADHGHADVAYRILQQPDYPGWGYMIARGATTIWERWDGIRPDGSLQDPGMNSFNHYGLGSVGDWLYREVGGVAPAAPGYAQVLLAPKPGGSLTSASAELTTTFGRVRSAWSRSGSAVTLQVVVATGTTATVRVPGTAVTSAPAEAVPVGGTSYVVGAGSYTFTSTL
Turning to B1, the “QS-17 (PAR %)” value in assay [1] was determined as 4.443%. The “Peak75 (PAR %)” value in assay [2] is recorded as 2.312%. The “Peak57 (PAR %)” value in assay [3] is on record as 1.681%. The “ratio PP/QS-21” value in assay [4] is 0.18.

B2: 1067 (protein, listed as Pedobacter heparinus)
chain: MKLIPNFLKTSMQQTVLLLLLALVCCADTVLAQQSGKASWIWYPGDLDIWVSNKMQNRRTERGAFLPPFWKMDSHYVLVEFHKEFNLANAEEVNLYVEGQYNVKIDGQAFSGYPKKITVPAGKHKLSLKVYGQDKVPAILVQGKTVVSDESWLATFEDKEWIDASGKASDKSGTTFVSAASWNLTDPLSPPSRFKLATTPMAAVKTDKVNNGFVADFGKETFGFIKLHGLKGKGKLHIYYGESKEEALSADHCETLDLLEIDLKGKQDSVIELSKAFRYVNCQPEGNVTLDKVSMLYEYAPVTEKGNFRCSDEQINKIYDISKYTFHLNTREFFIDGIKRDRWVWSGDAYQSYLMNYYSFNESPIVKRTLLAQRGKDPVTAHINTIMDYSFYWFLGIYDYYQYSGDQKFVQDIYPRMKSLMDYVLGRRNKDGLLEWMPGDWIFIDWADKLSKDGEVSFEQLLFCRSLETMALCADMAKDTEAAANYKKLAADLKARIFKLYWDENKHALVHSRINGKPTDNVTRYANMFGIFFDYFSPSQKQEVKQHVLMNNKINKITTPYMRFYELEALCAMGEQSYVLKQMKDYWGGMLELGATSFWEEYNRDKKGVEHLAMYGRPFGKSLCHAWGASPIYLLGKYYLGVKPLSAGYETYVVEPSLGGLEWMEGKVPTPSGEISLYCSKKEIRIKADEGSGVLRFKSVSKPVVKGGKVVEVGKRTYELKLMKGVQYTVNYQK
For B2, the “QS-17 (PAR %)” value in assay [1] is reported as 4.455%. Moreover, the “Peak75 (PAR %)” value in assay [2] is given as 2.231%. Moreover, in assay [3], the “Peak57 (PAR %)” value stood at 2.852%. Moreover, the “ratio PP/QS-21” value in assay [4] is 0.17.

B3: 1054 (protein, listed as Streptosporangium roseum)
chain: MEQAVAAALAVTDLRMDGRTEPLGLGESAPRFSWRLAAPGRGRAQSAYRIVVGRECDPLAEGAEVLWDTGEVGSSRTFDIAYEGAELRPRTRYQWRARAADEAGTWGDWSPAHWFETGLGDVTGWTADWIGTPAVPGSQRLPSLENVPRIWAAGPLGPSEARTGGFRTRFTVPGGARPLSAWLVIGGALDPQVHLNGMPVAGEVRDGAFVADAGDLIDSGENVLALRAGAVDGLPGGLCVRLEVVLEGRPALPQLVPVAGESAVTVTSDGRWRAAGEPAPGFEQPGFDDTGWSLAEEVGLHGDPPRGREPVADRPSPYLRREFDVPRPVSRARLYATALGVYELHLNGMRVSADHLAPGWTDYRHRVTYQTYDVTALVAEGGNALGAVLADGWYAGNISWFGSFQYGRRLALRAELEIVHDDGTTTRLRTDSDWRAGSGAIRYADLQNGERQDLAAEPVGWTACGFDDSGWLPAVPVSPPAGRPAAAVAPPVRVHEELAPRAVWESSPGVWIADFGQNVVGWVRLTARAGRDRPVVLRHAEVLDHEGALHLANLRSARATDEFLPRGGAGAETFEPRFTFHGFRYVEVSGLREPLTSDAIRARVAYAAMEPAGEFACSDERLNRLQGNIVRGQRGNFLSIPTDCPQRDERLGWTGDIWAFAPTALFNYDARAFLHSWLTDVVDAQAEDGAVTHVVPDVLSGRGLSPNPREAGSPGWGDAIVMLPWALYRLCGDADAVARYYGPMRRWLAYLDSRSTDGIFPDEGFGDWLSIGADTPKRLVGTAIFALSARQLAELAAALGRADDERACLEVYARVRRAFRAAFVQGPGVVESGTQTAYVLAITAGLLEEAELPRAAARLVRDIEARGGHLSTGFLGTPFLLDALTRSGHLGTAYRLLLQESFPSWLYPVVHGDATTMWERWDGWSHHRGLQDPGMNSFNHYAYGAVGAWMYETIGGLAPASPGYRAIVVRPRPGGELTWARTAYRTRHGRVEIAWRREGGDFTLEVRVPPNTRAEVWVPGGPAGVTESGRPAAESPGVALDRVVDGHAVYEVGSGSYAFHV
As to B3, the “QS-17 (PAR %)” value in assay [1] is listed as 4.348%. In addition, the “Peak75 (PAR %)” value in assay [2] was determined as 2.160%. In addition, the “Peak57 (PAR %)” value in assay [3] amounted to 2.487%. Moreover, in assay [4], the “ratio PP/QS-21” value came out at 0.17.

B4: 1063 (protein, listed as Parabacteroides distasonis)
chain: MNNKINDATMRIKQSIYIYAFAALLLGGCKSNNELTIPTNLRTEYLTEPIGLDTSSPRFTWEYSGNEEGFKASRYEVRIGTSPDDLRPYAEGMALKPHTRYYWNVTVWDGEGRPCATSETASFETAKFDPSDWSASWITDHKDKEFEPAPLFRKSFPVGKEVKDARVYVASAGYHELFINGERVGTNYLDPGYTHFDKRILYVTHDVTSLLKQGDNAVAAVLGNGWYNEQSVAVWNFHEARWRDRPRLLCELRITYTDGTTEVIGSDETWKTSTGAYTYNNIYSGDKFDARLEEAGWKTAHFDDSKWEAALPAQAPAPLLVAQQMPGIRITEEVRPVSMKRFSDQLYVYSFPKNMSGLCRLKVKGEAGTRITLKHGELLKKDGRLEQGNINVYYHPVKPDEVFQMDVFTLKGTGEEEIFMPSFSYHGFQYVEVESSRPVTLTEENLTGLFMHTDVRPSGSFACSNPLLNKIWEATMQAYRSNLHSIPTDCPQREKNGWTADAHIAIDLGLLGFDGITLYEKWMDDIIDNQREAGEISGIIPSSGWGYGEWPGPVWDAVMFIIPNALYDYYGESRSIERLYPTMLRYLDYLKTKEKDGYLPFGLGDWVYWKATTNNEYTSTAYYYLDYKLMARFASLLGKDAAPYQEKANTLKSLINQKFFNAETGVYAEGTQTAQALALYLGLVPEGKEQLVADKLREVVAGNNYFLDFGLLGSKTVPAMLTKYGYIEDAMKMITKTEAPSWGYWVETMGYSTLPETWTLSPKFADASLNHVFMGDVSAWMMNQLAGINHDDSAPGFRHIRITPHFVKELDWAKGEYHSVRGRIASEWKREGDKVMLTVTIPADCSADIVVGDQTETVSAGTHTFTYPA
As to B4, the “QS-17 (PAR %)” value in assay [1] turned out to be 4.201%. Further, the “Peak75 (PAR %)” value in assay [2] came out at 2.240%. Moreover, the “Peak57 (PAR %)” value in assay [3] is given as 2.473%. The “ratio PP/QS-21” value in assay [4] is reported as 0.17.

B5: 1033 (protein, listed as Pedobacter heparinus)
chain: MNRRTFIQNTSIATSSLVFFNQFESLAFSKSDQDLYTLFKNPPANYRPFVRWWWNGNKIQKKELFRQLTLLKDAGIGGVEINPISFPNKADDMGIKSLRWLSDEWIDLVKDTCNEARSKDMTCDLIVGSGWPFGSEDLKEEERAEVVLVFAEKVEGPMVYETTKYSIYNAIDPQVTDKNPLRSPILMDLKLSQDPIAAIATTIDFSNQINNDIIKIDVPEGKHCIYALVKFKSFAKVINGAPGASGSILNHLNKQAVESYLNRMSSTMQDRIGPLSNYLRALFTDSMELEGCNWCEDFPAEFKKRCGYDLMPYLPFILFKVGRLGAVVDEDYGAEKSQDLNVILKKVRFDFEYTKALLLRERFTEVYLKWCKELKVKSRAQAYGRGFFPLETSLGYDIPEGESWTTNYLRHKLGEEMSDEDYRRGRGYTMINKYVSSAAHLTGKRIVSCEEMTNTYLVFNATLELLKLGSDQSIMSGITHSVWHGFNYSPKEVAFPGWVQYGSYYSEKNNWWPYFKYLNDYKARLSSQLQHGDYYTDIAILPANYDLWANNGVQTDPFPEKLNVPYTSLLWEAINKNGGAADYITDMILTQSEIIKGKIVYGKKSFGVLFLPGVESLSELAMQKIEQFVKTGGKVICIEKYPAKGLGFLNWEQKDATIKDAVARLKQQFSDRFIFLDKPADNKFLEWYTPLIATHQLPSYLNISTPNRYFMQIRSVRDDGTEMFFFQNAHRYDAYQARVVFDRKKIKGKYAWVWDLDSGERFRLTLTNDTTFEYNFGPTESLLIIFDQIKNGEKWKPLLSSGKSTLNLDKVWDLELRNSLDGSVKHVNLPQVIDMKDDKELVNFTGTAIYRKKITLTDTKNLVINLGKVYGITQLYINKVQVGIKWYGKRFFDISKYVQTGTNDIEIHLVTTMGNYMKTLTDNEIAQYWVNRKGREQEIQSMGIVGPIEIYQQN
As for B5, in assay [1], the “QS-17 (PAR %)” value worked out at 4.485%. Moreover, the “Peak75 (PAR %)” value in assay [2] is 2.521%. The “Peak57 (PAR %)” value in assay [3] turned out to be 2.927%. In addition, in assay [4], the “ratio PP/QS-21” value turned out to be 0.16.
